Experimental data published in PMC8032703.

Key:
[1] = target: recombinant FlaB (Vibrio vulnificus MO6-24/O)
[2] = target: recombinant FlaB (Vibrio vulnificus MO6-24/O); remark: listed apart in the source
[3] = target: FlaBΔC0 (truncated FlaB, from M1 to S332) (Vibrio vulnificus MO6-24/O)
[4] = target: recombinant FlaB (Vibrio vulnificus MO6-24/O); remark: listed apart in the source
[5] = target: FlaBΔC1 (truncated FlaB, from M1 to A287) (Vibrio vulnificus MO6-24/O)
[6] = target: FlaBΔN0C0 (truncated FlaB, from L54 to S332) (Vibrio vulnificus MO6-24/O)
[7] = target: FlaBΔN1 (truncated FlaB, from K162 to G377) (Vibrio vulnificus MO6-24/O)
[8] = target: recombinant FlaB (Vibrio vulnificus MO6-24/O); remark: listed apart in the source

## recombinant DegQ (serine protease of the HtrA family) (enzyme)
[1]
  EC50 of rDegQ (0-1.2 μM) proteolysing 50% of 1 μM rFlaB in vitro (SDS-PAGE densitometry), representative experiment: 140 nM
[2]
  averaged EC50 of rDegQ for in vitro proteolysis of 1 μM rFlaB, as given for comparison with the FlaC mutant (Fig. 7b): 140 nM
[3]
  averaged EC50 of rDegQ for in vitro proteolysis of 1 μM FlaBΔC0: 310 nM
[4]
  averaged EC50 of rDegQ for in vitro proteolysis of 1 μM rFlaB (three independent experiments): 130 nM
[5]
  averaged EC50 of rDegQ for in vitro proteolysis of 1 μM FlaBΔC1: 340 nM
[6]
  averaged EC50 of rDegQ for in vitro proteolysis of 1 μM FlaBΔN0C0: 320 nM
[7]
  averaged EC50 of rDegQ for in vitro proteolysis of 1 μM FlaBΔN1: 420 nM

## recombinant FlaJ (flagellin-specific chaperone) (natural protein)
[8]
  protection of 1 μM rFlaB from proteolysis by 1.08 μM rDegQ with rFlaJ 0-6.67 μM; percent of rFlaB left at 0.56 μM FlaJ: 77%
